Here are results for 13 molecules from patent US20190225692A1 (JUNO THERAPEUTICS, published 2019).

The labels stand for the following.
B1: TCR 43 (codon optimized, cysteine modified version) (TCR, V domains shown)
V domain 1: QKEVEQNSGPLSVPEGAIASLNCTYSDRGSQSFFWYRQYSGKSPELIMFIYSNGDKEDGRFTAQLNKASQYVSLLIRDSQPSDSATYLCAVNVPTSGTYKYIFGTGTRLKVLA
V domain 2: EPEVTQTPSHQVTQMGQEVILRCVPISNHLYFYWYRQILGQKVEFLVSFYNNEISEKSEIFDDQFSVERPDGSNFTLKIRSTKLEDSAMYFCASTPRDSYEQYFGPGTRLTVTE
B2: TCR 40 (codon optimized, cysteine modified version) (TCR, V domains shown)
V domain 1: GQQVMQIPQYQHVQEGEDFTTYCNSSTTLSNIQWYKQRPGGHPVFLIQLVKSGEVKKQKRLTFQFGEAKKNSSLHITATQTTDVGTYFCAGRNNFNKFYFGSGTKLNVKP
V domain 2: B1 V domain 2 with S94I, P96A, D98S
B3: TCR 36 (codon optimized, cysteine modified version) (TCR, V domains shown)
V domain 1: RKEVEQDPGPFNVPEGATVAFNCTYSNSASQSFFWYRQDCRKEPKLLMSVYSSGNEDGRFTAQLNRASQYISLLIRDSKLSDSATYLCVVNRDNYGQNFVFGPGTRLSVLP
V domain 2: B1 V domain 2 with S94M, P96G, D98S, S99N
B4: TCR 42 (codon optimized, cysteine modified version) (TCR, V domains shown)
V domain 1: B2 V domain 1 with R92P, N93D
V domain 2: B1 V domain 2 with S94K, P96S, D98S
B5: TCR 33 (codon optimized, cysteine modified version) (TCR, V domains shown)
V domain 1: B1 V domain 1 with V93A, P94H, T95H, S96T, T98G, Y99F, Y101T, T105A, K110F, L112K
V domain 2: B1 V domain 2 with S99T
B6: TCR 49 (codon optimized, cysteine modified version) (TCR, V domains shown)
V domain 1: B1 V domain 1 with V93I, P94G
V domain 2: B1 V domain 2 with D98Y
B7: TCR 39 (codon optimized, cysteine modified version) (TCR, V domains shown)
V domain 1: GQQLNQSPQSMFIQEGEDVSMNCTSSSIFNTWLWYKQEPGEGPVLLIALYKAGELTSNGRLTAQFGITRKDSFLNISASIPSDVGIYFCAGYSSSNDYKLSFGAGTTVTVRA
V domain 2: EPEVTQTPSHQVTQMGQEVILRCVPISNHLYFYWYRQILGQKVEFLVSFYNNEISEKSEIFDDQFSVERPDGSNFTLKIRSTKLEDSAMYFCASTPRDRGKEAFFGQGTRLTVVE
B8: TCR 31 (codon optimized, cysteine modified version) (TCR, V domains shown)
V domain 1: DQQVKQNSPSLSVQEGRISILNCDYTNSMFDYFLWYKKYPAEGPTFLISISSIKDKNEDGRFTVFLNKSAKHLSLHIVPSQPGDSAVYFCAASERGTYKYIFGTGTRLKVLA
V domain 2: GAGVSQSPSNKVTEKGKDVELRCDPISGHTALYWYRQSLGQGLEFLIYFQGNSAPDKSGLPSDRFSAERTGGSVSTLTIQRTQQEDSAVYLCASSRFLGSTDTQYFGPGTRLTVLE
B9: TCR 32 (codon optimized, cysteine modified version) (TCR, V domains shown)
V domain 1: TQLLEQSPQFLSIQEGENLTVYCNSSSVFSSLQWYRQEPGEGPVLLVTVVTGGEVKKLKRLTFQFGDARKDSSLHITAAQPGDTGLYLCAGGSNYKLTFGKGTLLTVNP
V domain 2: DSGVTQTPKHLITATGQRVTLRCSPRSGDLSVYWYQQSLDQGLQFLIQYYNGEERAKGNILERFSAQQFPDLHSELNLSSLELGDSALYFCASSVGGDHSDEQFFGPGTRLTVLE
B10: TCR 37 (codon optimized, cysteine modified version) (TCR, V domains shown)
V domain 1: ELKVEQNPLFLSMQEGKNYTIYCNYSTTSDRLYWYRQDPGKSLESLFVLLSNGAVKQEGRLMASLDTKARLSTLHITAAVHDLSATYFCAGYSGAGSYQLTFGKGTKLSVIP
V domain 2: GAGVSQSPRYKVAKRGQDVALRCDPISGHVSLFWYQQALGQGPEFLTYFQNEAQLDKSGLPSDRFFAERPEGSVSTLKIQRTQQEDSAVYLCASSLLLGAYGYTFGSGTRLTVVE
B11: TCR 35 (codon optimized, cysteine modified version) (TCR, V domains shown)
V domain 1: KDQVFQPSTVASSEGAVVEIFCNHSVSNAYNFFWYLHFPGCAPRLLVKGSKPSQQGRYNMTYERFSSSLLILQVREADAAVYYCAVAGDYKLSFGAGTTVTVRA
V domain 2: DSGVTQTPKHLITATGQRVTLRCSPRSGDLSVYWYQQSLDQGLQFLIQYYNGEERAKGNILERFSAQQFPDLHSELNLSSLELGDSALYFCASTTSGDSSYNEQFFGPGTRLTVLE
B12: TCR 34 (codon optimized, cysteine modified version) (TCR, V domains shown)
V domain 1: ELKVEQNPLFLSMQEGKNYTIYCNYSTTSDRLYWYRQDPGKSLESLFVLLSNGAVKQEGRLMASLDTKARLSTLHITAAVHDLSATYFCAVSGTYKYIFGTGTRLKVLA
V domain 2: ETGVTQSPTHLIKTRGQQVTLRCSSQSGHNTVSWYQQALGQGPQFIFQYYREEENGRGNFPPRFSGLQFPNYSSELNVNALELDDSALYLCASSSYAGSYEQYFGPGTRLTVTE
B13: TCR 41 (codon optimized, cysteine modified version) (TCR, V domains shown)
V domain 1: RKEVEQDPGPFNVPEGATVAFNCTYSNSASQSFFWYRQDCRKEPKLLMSVYSSGNEDGRFTAQLNRASQYISLLIRDSKLSDSATYLCVVTFALTGGFKTIFGAGTRLFVKA
V domain 2: EPEVTQTPSHQVTQMGQEVILRCVPISNHLYFYWYRQILGQKVEFLVSFYNNEISEKSEIFDDQFSVERPDGSNFTLKIRSTKLEDSAMYFCASNPRDRVSYEQYFGPGTRLTVTE

Residue numbers refer to the chain shown, from its start.

For the assay, the target named is T1, HLA-A2/E7 (11-19) tetramer (human; HPV 16).
T1 construct: also called E7(11-19) peptide-MHC tetramer; E7 (11-19)-loaded tetramer
As to the kind of experiment: tetramer flow cytometry; transfected 1:1 CD4+ and CD4+/CD8+ Jurkat-derived cells.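 Further: cells transiently transfected with TCR plasmids, stained 48 h later with HLA-A*02:01 peptide-MHC tetramer plus anti-CD8 antibody, read by flow cytometry to assess CD8-independent tetramer binding.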
Protocol: For transfection, the CD4+ and CD4+/CD8+ cell mixtures were transiently transfected with TCR-encoding plasmids and 48 hours after transfection, cells were assessed by flow cytometry for (1) binding of the target peptide in the context of an MHC molecule (HLA:A02:01) by staining with an E6(29-38) peptide- or an E7(11-19) peptide-MHC tetramer reagent, and/or (2) CD8+ independent binding of the target by co-staining the tetramer-labeled cells with an anti-CD8 antibody.
For the molecule B1, the “% cells in E7 tet+/CD8+ quadrant” value came to 3.82%, the “% cells in E7 tet+/CD8- quadrant” value was 1.88%, the “% cells in E7 tet-/CD8+ quadrant” value is 37.6% and the “% cells in E7 tet-/CD8- quadrant” value came to 56.7%.

On to B2, for which the “% cells in E7 tet+/CD8+ quadrant” value is 7.84%, the “% cells in E7 tet+/CD8- quadrant” value was found to be 1.37%, the “% cells in E7 tet-/CD8+ quadrant” value was found to be 42.4% and the “% cells in E7 tet-/CD8- quadrant” value came out at 48.4%.

On to B3, for which the “% cells in E7 tet+/CD8+ quadrant” value worked out at 23.4%, the “% cells in E7 tet+/CD8- quadrant” value came out at 16.7%, the “% cells in E7 tet-/CD8+ quadrant” value is 25.4% and the “% cells in E7 tet-/CD8- quadrant” value turned out to be 34.5%.

Consider B4, for which the “% cells in E7 tet+/CD8+ quadrant” value was 1.21%, the “% cells in E7 tet+/CD8- quadrant” value came out at 1.65%, the “% cells in E7 tet-/CD8+ quadrant” value came to 39.5% and the “% cells in E7 tet-/CD8- quadrant” value came out at 57.4%.

As to B5, the “% cells in E7 tet+/CD8+ quadrant” value was determined as 22.6%, the “% cells in E7 tet+/CD8- quadrant” value was 14%, the “% cells in E7 tet-/CD8+ quadrant” value was 12.8% and the “% cells in E7 tet-/CD8- quadrant” value amounted to 50.6%.

As for B6, the “% cells in E7 tet+/CD8+ quadrant” value came to 5.54%, the “% cells in E7 tet+/CD8- quadrant” value turned out to be 3.06%, the “% cells in E7 tet-/CD8+ quadrant” value was 27.2% and the “% cells in E7 tet-/CD8- quadrant” value came out at 64.3%.

Regarding B7, the “% cells in E7 tet+/CD8+ quadrant” value amounted to 12.3%, the “% cells in E7 tet+/CD8- quadrant” value is 2.61%, the “% cells in E7 tet-/CD8+ quadrant” value was found to be 37% and the “% cells in E7 tet-/CD8- quadrant” value came to 48%.

With B8, the “% cells in E7 tet+/CD8+ quadrant” value is 4.52%, the “% cells in E7 tet+/CD8- quadrant” value is 0.042%, the “% cells in E7 tet-/CD8+ quadrant” value came to 21.1% and the “% cells in E7 tet-/CD8- quadrant” value was found to be 74.3%.

On to B9, for which the “% cells in E7 tet+/CD8+ quadrant” value is 25.3%, the “% cells in E7 tet+/CD8- quadrant” value was 33.5%, the “% cells in E7 tet-/CD8+ quadrant” value is 7.53% and the “% cells in E7 tet-/CD8- quadrant” value was 33.7%.

With B10, the “% cells in E7 tet+/CD8+ quadrant” value came out at 25.5%, the “% cells in E7 tet+/CD8- quadrant” value was 19.5%, the “% cells in E7 tet-/CD8+ quadrant” value is 22.7% and the “% cells in E7 tet-/CD8- quadrant” value worked out at 32.2%.

With B11, the “% cells in E7 tet+/CD8+ quadrant” value worked out at 14.5%, the “% cells in E7 tet+/CD8- quadrant” value came to 7.18%, the “% cells in E7 tet-/CD8+ quadrant” value came out at 35.1% and the “% cells in E7 tet-/CD8- quadrant” value was 43.2%.

In the case of B12, the “% cells in E7 tet+/CD8+ quadrant” value was determined as 26.3%, the “% cells in E7 tet+/CD8- quadrant” value was found to be 26%, the “% cells in E7 tet-/CD8+ quadrant” value was 6.85% and the “% cells in E7 tet-/CD8- quadrant” value was determined as 40.9%.

For B13, the “% cells in E7 tet+/CD8+ quadrant” value was 6.07%, the “% cells in E7 tet+/CD8- quadrant” value was found to be 2.41%, the “% cells in E7 tet-/CD8+ quadrant” value was found to be 43.6% and the “% cells in E7 tet-/CD8- quadrant” value was 47.9%.
